Publication doi:10.1101/2021.03.08.433449 (bioRxiv, 2021)

Experiments:
[1] = biological target: monomeric human Fc-fused SARS-CoV-2_RBD-SD1 (SARS-CoV-2 (Wuhan-Hu-1), UniProt P0DTC2); assay: BLI
[2] = biological target: mouse IgG1 Fc fused SARS-CoV-1 RBD (Sino Biological, 40150-V05H) (SARS-CoV-1, isolate not named, UniProt P59594); assay: BLI
[3] = biological target: SARS-CoV-2 spike expressed on the surface of HEK293 cells (SARS-CoV-2 (Wuhan-Hu-1), UniProt P0DTC2); assay: flow cytometry on cells

Row | Binder | fold increase in affinity over humVHH [1] | binding result [2] | binding result [3] | binding result [1]
1 | humVHH_S56A (VHH) VHH: EVQLVESGGGLVQPGGSLRLSCAASGRTFSEYAMGWFRQAPGKEREFVATISWSGGATYYTDSVKGRFTISRDNAKNTVYLQMNSLRPEDTAVYYCAAAGLGTVVSEWDYDYDYWGQGTLVTVSS | ~7 fold | binds | – | –
2 | humVHH (VHH) VHH: EVQLVESGGGLVQPGGSLRLSCAASGRTFSEYAMGWFRQAPGKEREFVATISWSGGSTYYTDSVKGRFTISRDNAKNTVYLQMNSLRPEDTAVYYCAAAGLGTVVSEWDYDYDYWGQGTLVTVSS | – | – | binds | binds
